Measurements taken from patent US20180155451A1 (published 2018).

T1: FcγRIIb extracellular domain with C-terminal His tag (human, UniProt P31994 43-217)
T1 construct: extracellular domain; also called FcgRIIb; 2b; not shown: His tag at the C terminus
T1 sequence (looked up): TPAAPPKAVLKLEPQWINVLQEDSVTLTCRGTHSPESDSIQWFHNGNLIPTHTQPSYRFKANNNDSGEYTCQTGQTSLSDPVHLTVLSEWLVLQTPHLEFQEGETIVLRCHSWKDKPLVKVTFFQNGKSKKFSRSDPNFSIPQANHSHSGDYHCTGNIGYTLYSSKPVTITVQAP


Legend:
[1] = target: T1, FcγRIIb extracellular domain with …; test: SPR (Biacore), antibody captured via antigen peptide, FcγR as analyte; binding relative to GpH7-A5/GpH7-B3/GpL16-k0 = 100
[2] = target: T2, FcγRIIIa extracellular domain with C-terminal His tag (human, UniProt P08637 17-208); test: as above
T2 construct: extracellular domain; also called FcgRIIIa; 3a; not shown: His tag at the C terminus

[3] = target: T2, FcγRIIIa extracellular domain with …; test: ratio of He/Con_3a to He/Con_2b (FcγRIIIa over FcγRIIb), SPR relative binding
Experimental: The heterodimerized antibodies He Abs in which one of the H chains was introduced with an alteration were assayed for their binding activities to each activating FcγR and inhibitory FcγR according to the method described in Example 4. […] The activating FcγRs in FIGS. 26, 27, 28, and 29 are FcγRIa, FcγRIIa (R), FcγRIIa (H), and FcγRIIIa, respectively.
Analysis of interaction between objective antibody and the FcγR was carried out using Biacore T100 (GE Healthcare). HBS-EP+ (GE Healthcare) was used as the running buffer, and the measurement temperature was set to 25° C. Chips produced by immobilizing the antigen peptide by the amine coupling method to a Series S Sencor Chip CM5 (GE Healthcare), or alternatively, chips produced by allowing preliminarily biotinylated antigen peptides to interact with and immobilize onto a Series S Sensor Chip SA (certified) (GE Healthcare) were used. Antibodies of interest were captured onto an antigen peptide-immobilized chip, and allowed to interact to each FcγR diluted with running buffer. To regenerate and repeatedly use the chip, the antibodies captured on the chip were washed off by reacting 10 mM glycine-HCl, pH 1.5.

T2 sequence (P08637 17-208): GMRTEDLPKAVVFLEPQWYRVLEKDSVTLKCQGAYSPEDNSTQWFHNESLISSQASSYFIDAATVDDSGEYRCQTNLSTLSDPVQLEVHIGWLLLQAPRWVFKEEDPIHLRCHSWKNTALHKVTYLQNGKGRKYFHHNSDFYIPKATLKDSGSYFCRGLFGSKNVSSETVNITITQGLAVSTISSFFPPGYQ

| Binder | He/Con_2b [1] | He/Con_3a [2] | IIIa/IIb (He_3a/2b) [3] |
| --- | --- | --- | --- |
| GpH7-A5/GpH7-B3 variant D270_07I/GpL16-k0 (antibody, human IgG1, kappa, He Ab: the mutation stands only in the GpH7-B3-derived H chain; also called He Ab D270I) heavy 1: not shown heavy 2: not shown light: DIVMTQSPLSLPVTPGEPASISCQASESLVHSNRNTYLHWYLQKPGQSPQLLIYKVSNRFSGVPDRFSGSGSGTDFTLKISRVEAEDVGVYYCSQNTHVPPTFGQGTKVEIERTVAAPSVFIFPPSDEQLKSGTASVVCLLNNFYPREAKVQWKVDNALQSGNSQESVTEQDSKDSTYSLSSTLTLSKADYEKHKVYACEVTHQGLSSPVTKSFNRGEC | 41.5 relative (control = 100) | 69.6 relative (control = 100) | 1.68 |
| GpH7-A5/GpH7-B3 variant D270_12R/GpL16-k0 (antibody, human IgG1, kappa, He Ab: the mutation stands only in the GpH7-B3-derived H chain; also called He Ab D270R) heavy 1: not shown heavy 2: not shown light: DIVMTQSPLSLPVTPGEPASISCQASESLVHSNRNTYLHWYLQKPGQSPQLLIYKVSNRFSGVPDRFSGSGSGTDFTLKISRVEAEDVGVYYCSQNTHVPPTFGQGTKVEIERTVAAPSVFIFPPSDEQLKSGTASVVCLLNNFYPREAKVQWKVDNALQSGNSQESVTEQDSKDSTYSLSSTLTLSKADYEKHKVYACEVTHQGLSSPVTKSFNRGEC | 18.3 relative (control = 100) | 28.8 relative (control = 100) | 1.58 |
| GpH7-A5/GpH7-B3 variant D270_18N/GpL16-k0 (antibody, human IgG1, kappa, He Ab: the mutation stands only in the GpH7-B3-derived H chain; also called He Ab D270N) heavy 1: not shown heavy 2: not shown light: DIVMTQSPLSLPVTPGEPASISCQASESLVHSNRNTYLHWYLQKPGQSPQLLIYKVSNRFSGVPDRFSGSGSGTDFTLKISRVEAEDVGVYYCSQNTHVPPTFGQGTKVEIERTVAAPSVFIFPPSDEQLKSGTASVVCLLNNFYPREAKVQWKVDNALQSGNSQESVTEQDSKDSTYSLSSTLTLSKADYEKHKVYACEVTHQGLSSPVTKSFNRGEC | 40.3 relative (control = 100) | 56.5 relative (control = 100) | 1.4 |
| GpH7-A5/GpH7-B3 variant D270_19Q/GpL16-k0 (antibody, human IgG1, kappa, He Ab: the mutation stands only in the GpH7-B3-derived H chain; also called He Ab D270Q) heavy 1: not shown heavy 2: not shown light: DIVMTQSPLSLPVTPGEPASISCQASESLVHSNRNTYLHWYLQKPGQSPQLLIYKVSNRFSGVPDRFSGSGSGTDFTLKISRVEAEDVGVYYCSQNTHVPPTFGQGTKVEIERTVAAPSVFIFPPSDEQLKSGTASVVCLLNNFYPREAKVQWKVDNALQSGNSQESVTEQDSKDSTYSLSSTLTLSKADYEKHKVYACEVTHQGLSSPVTKSFNRGEC | 48 relative (control = 100) | 81.9 relative (control = 100) | 1.7 |
| GpH7-A5/GpH7-B3 variant D270_08L/GpL16-k0 (antibody, human IgG1, kappa, He Ab: the mutation stands only in the GpH7-B3-derived H chain; also called He Ab D270L) heavy 1: not shown heavy 2: not shown light: DIVMTQSPLSLPVTPGEPASISCQASESLVHSNRNTYLHWYLQKPGQSPQLLIYKVSNRFSGVPDRFSGSGSGTDFTLKISRVEAEDVGVYYCSQNTHVPPTFGQGTKVEIERTVAAPSVFIFPPSDEQLKSGTASVVCLLNNFYPREAKVQWKVDNALQSGNSQESVTEQDSKDSTYSLSSTLTLSKADYEKHKVYACEVTHQGLSSPVTKSFNRGEC | 53.6 relative (control = 100) | 71.8 relative (control = 100) | 1.34 |
| GpH7-A5/GpH7-B3 variant Q295_01G/GpL16-k0 (antibody, human IgG1, kappa, He Ab: the mutation stands only in the GpH7-B3-derived H chain; also called He Ab Q295G) heavy 1: not shown heavy 2: not shown light: DIVMTQSPLSLPVTPGEPASISCQASESLVHSNRNTYLHWYLQKPGQSPQLLIYKVSNRFSGVPDRFSGSGSGTDFTLKISRVEAEDVGVYYCSQNTHVPPTFGQGTKVEIERTVAAPSVFIFPPSDEQLKSGTASVVCLLNNFYPREAKVQWKVDNALQSGNSQESVTEQDSKDSTYSLSSTLTLSKADYEKHKVYACEVTHQGLSSPVTKSFNRGEC | 46 relative (control = 100) | 73 relative (control = 100) | 1.59 |
| GpH7-A5/GpH7-B3 variant D270_10E/GpL16-k0 (antibody, human IgG1, kappa, He Ab: the mutation stands only in the GpH7-B3-derived H chain; also called He Ab D270E) heavy 1: not shown heavy 2: not shown light: DIVMTQSPLSLPVTPGEPASISCQASESLVHSNRNTYLHWYLQKPGQSPQLLIYKVSNRFSGVPDRFSGSGSGTDFTLKISRVEAEDVGVYYCSQNTHVPPTFGQGTKVEIERTVAAPSVFIFPPSDEQLKSGTASVVCLLNNFYPREAKVQWKVDNALQSGNSQESVTEQDSKDSTYSLSSTLTLSKADYEKHKVYACEVTHQGLSSPVTKSFNRGEC | 76.5 relative (control = 100) | 123 relative (control = 100) | 1.61 |
| GpH7-A5/GpH7-B3 variant D270_11K/GpL16-k0 (antibody, human IgG1, kappa, He Ab: the mutation stands only in the GpH7-B3-derived H chain; also called He Ab D270K) heavy 1: not shown heavy 2: not shown light: DIVMTQSPLSLPVTPGEPASISCQASESLVHSNRNTYLHWYLQKPGQSPQLLIYKVSNRFSGVPDRFSGSGSGTDFTLKISRVEAEDVGVYYCSQNTHVPPTFGQGTKVEIERTVAAPSVFIFPPSDEQLKSGTASVVCLLNNFYPREAKVQWKVDNALQSGNSQESVTEQDSKDSTYSLSSTLTLSKADYEKHKVYACEVTHQGLSSPVTKSFNRGEC | 20.3 relative (control = 100) | 41 relative (control = 100) | 2.02 |

Continued, values first:

| He/Con_2b [1] | He/Con_3a [2] | IIIa/IIb (He_3a/2b) [3] | Binder |
| --- | --- | --- | --- |
| 58.1 relative (control = 100) | 74.1 relative (control = 100) | 1.28 | GpH7-A5/GpH7-B3 variant P271_20W/GpL16-k0 (antibody, human IgG1, kappa, He Ab: the mutation stands only in the GpH7-B3-derived H chain; also called He Ab P271W) heavy 1: not shown heavy 2: not shown light: DIVMTQSPLSLPVTPGEPASISCQASESLVHSNRNTYLHWYLQKPGQSPQLLIYKVSNRFSGVPDRFSGSGSGTDFTLKISRVEAEDVGVYYCSQNTHVPPTFGQGTKVEIERTVAAPSVFIFPPSDEQLKSGTASVVCLLNNFYPREAKVQWKVDNALQSGNSQESVTEQDSKDSTYSLSSTLTLSKADYEKHKVYACEVTHQGLSSPVTKSFNRGEC |
| 60.8 relative (control = 100) | 81.5 relative (control = 100) | 1.34 | GpH7-A5/GpH7-B3 variant Q295_09D/GpL16-k0 (antibody, human IgG1, kappa, He Ab: the mutation stands only in the GpH7-B3-derived H chain; also called He Ab Q295D) heavy 1: not shown heavy 2: not shown light: DIVMTQSPLSLPVTPGEPASISCQASESLVHSNRNTYLHWYLQKPGQSPQLLIYKVSNRFSGVPDRFSGSGSGTDFTLKISRVEAEDVGVYYCSQNTHVPPTFGQGTKVEIERTVAAPSVFIFPPSDEQLKSGTASVVCLLNNFYPREAKVQWKVDNALQSGNSQESVTEQDSKDSTYSLSSTLTLSKADYEKHKVYACEVTHQGLSSPVTKSFNRGEC |
| 44.2 relative (control = 100) | 56.7 relative (control = 100) | 1.28 | GpH7-A5/GpH7-B3 variant D270_13S/GpL16-k0 (antibody, human IgG1, kappa, He Ab: the mutation stands only in the GpH7-B3-derived H chain; also called He Ab D270S) heavy 1: not shown heavy 2: not shown light: DIVMTQSPLSLPVTPGEPASISCQASESLVHSNRNTYLHWYLQKPGQSPQLLIYKVSNRFSGVPDRFSGSGSGTDFTLKISRVEAEDVGVYYCSQNTHVPPTFGQGTKVEIERTVAAPSVFIFPPSDEQLKSGTASVVCLLNNFYPREAKVQWKVDNALQSGNSQESVTEQDSKDSTYSLSSTLTLSKADYEKHKVYACEVTHQGLSSPVTKSFNRGEC |
| 44.3 relative (control = 100) | 65 relative (control = 100) | 1.47 | GpH7-A5/GpH7-B3 variant E269_19Q/GpL16-k0 (antibody, human IgG1, kappa, He Ab: the mutation stands only in the GpH7-B3-derived H chain; also called He Ab E269Q) heavy 1: not shown heavy 2: not shown light: DIVMTQSPLSLPVTPGEPASISCQASESLVHSNRNTYLHWYLQKPGQSPQLLIYKVSNRFSGVPDRFSGSGSGTDFTLKISRVEAEDVGVYYCSQNTHVPPTFGQGTKVEIERTVAAPSVFIFPPSDEQLKSGTASVVCLLNNFYPREAKVQWKVDNALQSGNSQESVTEQDSKDSTYSLSSTLTLSKADYEKHKVYACEVTHQGLSSPVTKSFNRGEC |
| 44.9 relative (control = 100) | 54.5 relative (control = 100) | 1.22 | GpH7-A5/GpH7-B3 variant D270_15Y/GpL16-k0 (antibody, human IgG1, kappa, He Ab: the mutation stands only in the GpH7-B3-derived H chain; also called He Ab D270Y) heavy 1: not shown heavy 2: not shown light: DIVMTQSPLSLPVTPGEPASISCQASESLVHSNRNTYLHWYLQKPGQSPQLLIYKVSNRFSGVPDRFSGSGSGTDFTLKISRVEAEDVGVYYCSQNTHVPPTFGQGTKVEIERTVAAPSVFIFPPSDEQLKSGTASVVCLLNNFYPREAKVQWKVDNALQSGNSQESVTEQDSKDSTYSLSSTLTLSKADYEKHKVYACEVTHQGLSSPVTKSFNRGEC |
| 79.7 relative (control = 100) | 106 relative (control = 100) | 1.32 | GpH7-A5/GpH7-B3 variant Q295_02A/GpL16-k0 (antibody, human IgG1, kappa, He Ab: the mutation stands only in the GpH7-B3-derived H chain; also called He Ab Q295A) heavy 1: not shown heavy 2: not shown light: DIVMTQSPLSLPVTPGEPASISCQASESLVHSNRNTYLHWYLQKPGQSPQLLIYKVSNRFSGVPDRFSGSGSGTDFTLKISRVEAEDVGVYYCSQNTHVPPTFGQGTKVEIERTVAAPSVFIFPPSDEQLKSGTASVVCLLNNFYPREAKVQWKVDNALQSGNSQESVTEQDSKDSTYSLSSTLTLSKADYEKHKVYACEVTHQGLSSPVTKSFNRGEC |
